This experiment has as its target human recombinant FVIII (Advate) (human, UniProt P00451 20-2351). The experiment in a line: ELISA. In general terms: An ELISA detects its analyte on a solid surface through an enzyme-linked reagent.

Sequence of human recombinant FVIII (Advate) (P00451 20-2351): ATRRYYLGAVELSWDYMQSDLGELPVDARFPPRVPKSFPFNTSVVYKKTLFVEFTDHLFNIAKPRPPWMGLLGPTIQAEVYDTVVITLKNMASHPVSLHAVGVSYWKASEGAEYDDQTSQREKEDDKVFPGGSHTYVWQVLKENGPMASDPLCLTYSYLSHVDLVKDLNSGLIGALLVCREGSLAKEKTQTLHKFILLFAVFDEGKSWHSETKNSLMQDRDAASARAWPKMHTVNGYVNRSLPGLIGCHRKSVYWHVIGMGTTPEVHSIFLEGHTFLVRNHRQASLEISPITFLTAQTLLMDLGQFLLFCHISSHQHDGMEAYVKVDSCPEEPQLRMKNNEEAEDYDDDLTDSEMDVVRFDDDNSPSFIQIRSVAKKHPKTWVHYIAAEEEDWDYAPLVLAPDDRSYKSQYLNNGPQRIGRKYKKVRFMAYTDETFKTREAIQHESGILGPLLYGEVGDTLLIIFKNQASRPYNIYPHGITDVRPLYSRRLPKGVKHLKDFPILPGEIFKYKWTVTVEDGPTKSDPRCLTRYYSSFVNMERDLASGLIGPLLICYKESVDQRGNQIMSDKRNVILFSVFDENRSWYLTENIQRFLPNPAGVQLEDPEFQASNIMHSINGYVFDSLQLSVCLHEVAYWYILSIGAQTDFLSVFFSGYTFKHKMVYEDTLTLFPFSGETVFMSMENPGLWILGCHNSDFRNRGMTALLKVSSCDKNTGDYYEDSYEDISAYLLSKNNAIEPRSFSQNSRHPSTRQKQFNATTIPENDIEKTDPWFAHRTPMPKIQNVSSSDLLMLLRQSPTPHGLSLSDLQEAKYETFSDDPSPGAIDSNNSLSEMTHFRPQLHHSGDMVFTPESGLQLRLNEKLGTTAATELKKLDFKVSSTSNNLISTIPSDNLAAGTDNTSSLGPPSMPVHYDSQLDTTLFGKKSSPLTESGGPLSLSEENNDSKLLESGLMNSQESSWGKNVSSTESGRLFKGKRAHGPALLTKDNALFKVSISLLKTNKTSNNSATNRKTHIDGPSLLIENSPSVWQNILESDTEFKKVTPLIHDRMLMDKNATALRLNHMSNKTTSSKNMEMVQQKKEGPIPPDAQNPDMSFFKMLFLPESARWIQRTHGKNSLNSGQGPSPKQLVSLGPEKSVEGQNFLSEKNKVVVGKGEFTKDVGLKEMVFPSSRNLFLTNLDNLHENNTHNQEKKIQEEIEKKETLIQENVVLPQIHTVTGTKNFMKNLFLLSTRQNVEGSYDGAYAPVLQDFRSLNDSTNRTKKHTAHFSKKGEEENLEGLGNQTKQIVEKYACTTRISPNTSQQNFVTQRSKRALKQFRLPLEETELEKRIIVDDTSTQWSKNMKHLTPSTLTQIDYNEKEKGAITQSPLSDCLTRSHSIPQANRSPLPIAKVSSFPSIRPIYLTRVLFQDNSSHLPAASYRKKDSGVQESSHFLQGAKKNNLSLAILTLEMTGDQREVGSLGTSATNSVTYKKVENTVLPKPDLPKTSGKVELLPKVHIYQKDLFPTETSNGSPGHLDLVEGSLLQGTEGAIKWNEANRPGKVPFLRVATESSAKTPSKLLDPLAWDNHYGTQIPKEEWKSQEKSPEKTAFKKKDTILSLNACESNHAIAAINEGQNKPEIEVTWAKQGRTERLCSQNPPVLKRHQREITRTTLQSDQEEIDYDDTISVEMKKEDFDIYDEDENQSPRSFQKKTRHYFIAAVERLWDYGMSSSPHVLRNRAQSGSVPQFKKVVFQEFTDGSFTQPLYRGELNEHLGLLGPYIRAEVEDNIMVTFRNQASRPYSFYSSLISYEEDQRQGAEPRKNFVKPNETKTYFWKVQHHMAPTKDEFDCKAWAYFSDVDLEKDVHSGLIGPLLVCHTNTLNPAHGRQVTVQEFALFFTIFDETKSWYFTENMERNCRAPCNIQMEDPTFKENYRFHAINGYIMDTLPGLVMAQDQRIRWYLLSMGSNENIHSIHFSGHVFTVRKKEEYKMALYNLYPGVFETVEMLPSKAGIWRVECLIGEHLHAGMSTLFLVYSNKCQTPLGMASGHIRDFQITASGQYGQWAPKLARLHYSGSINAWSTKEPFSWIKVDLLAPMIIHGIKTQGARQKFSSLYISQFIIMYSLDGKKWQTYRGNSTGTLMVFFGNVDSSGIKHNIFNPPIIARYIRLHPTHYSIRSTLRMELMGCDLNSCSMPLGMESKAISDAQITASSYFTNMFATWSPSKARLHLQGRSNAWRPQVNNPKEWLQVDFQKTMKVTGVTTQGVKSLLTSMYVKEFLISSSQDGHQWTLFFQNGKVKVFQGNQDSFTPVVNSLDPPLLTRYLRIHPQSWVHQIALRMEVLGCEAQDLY

B1: recombinant CLEC4M-Fc chimera (Fc fusion, human, UniProt Q9H2X3 71-399, looked up)
chain: QVSKVPSSLSQEQSEQDAIYQNLTQLKAAVGELSEKSKLQEIYQELTQLKAAVGELPEKSKLQEIYQELTRLKAAVGELPEKSKLQEIYQELTRLKAAVGELPEKSKLQEIYQELTRLKAAVGELPEKSKLQEIYQELTELKAAVGELPEKSKLQEIYQELTQLKAAVGELPDQSKQQQIYQELTDLKTAFERLCRHCPKDWTFFQGNCYFMSNSQRNWHDSVTACQEVRAQLVVIKTAEEQNFLQLQTSRSNRFSWMGLSDLNQEGTWQWVDGSPLSPSFQRYWNSGEPNNSGNEDCAEFSGSGWNDNRCDVDNYWICKKPAACFRDE
A word on the Kd: it is the constant that tells how readily two partners part at equilibrium. Consider B1, for which the Kd is < 0.1 nM.
